Experimental data taken from publication PMC12700824 (2025).

Biological target: FAM118B24–334-F122R (human, UniProt Q9BPY3 24-334, F122R)
Experiment: ITC

Kd: 233 nM
B1: FAM118B24–334-L32R (domain or fragment)
chain: PTKKPRKLRPSLKTKKPRELVLVIGTGISAAVAPQVPALKSWKGLIQALLDAAIDFDLLEDEESKKFQKCLHEDKNLVHVAHDLIQKLSPRTSNVRSTFFKDCLYEVFDDLESKMEDSGKQLLQSVLHLMENGALVLTTNFDNLLELYAADQGKQLESLDLTDEKKVLEWAQEKRKLSVLHIHGVYTNPSGIVLHPAGYQNVLRNTEVMREIQKLYENKSFLFLGCGWTVDDTTFQALFLEAVKHKSDLEHFMLVRRGDVDEFKKLRENMLDKGIKVISYGDDYADLPEYFKRLTCEISTRGTSAGMVREG
